The text below walks through data of patent US20230192865A1.

Residue numbers refer to the chain shown, from its start.

In experiment [1] the target is T1, Galectin-10 protein with His tag (expressed and purified with pk277) (Homo sapiens (Human)) (UniProt Q05315).
T1 sequence: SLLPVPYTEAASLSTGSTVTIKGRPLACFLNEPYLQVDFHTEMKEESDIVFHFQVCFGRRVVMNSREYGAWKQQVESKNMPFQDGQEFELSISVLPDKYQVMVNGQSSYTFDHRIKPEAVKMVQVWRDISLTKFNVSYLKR
Kind of experiment: ELISA on coated His-tagged Galectin-10, anti-GST detection. (In general: ELISA stands for enzyme-linked immunosorbent assay.)

Experiment [2] concerns the target T1, Galectin-10 protein with His tag (expressed and purified with pk277) (Homo sapiens (Human)). Kind of experiment: ELISA, His-tagged Galectin-10 coated at 125 ng/mL, 254# diluted 1:200, anti-GST mouse antibody and HRP goat anti-mouse, average.
The target is the same in experiment [3]. Kind of experiment: ELISA, His-tagged Galectin-10 coated at 500 ng/mL, 254# diluted 1:200, anti-GST mouse antibody and HRP goat anti-mouse, average.
For experiment [4] the target is unchanged. Kind of experiment: ELISA, His-tagged Galectin-10 coated at 125 ng/mL, 254# diluted 1:200, anti-GST mouse antibody and HRP goat anti-mouse, repeat 1.
For experiment [5] the target is unchanged. Kind of experiment: ELISA, His-tagged Galectin-10 coated at 125 ng/mL, 254# diluted 1:200, anti-GST mouse antibody and HRP goat anti-mouse, repeat 2.
For experiment [6] the target is unchanged. Kind of experiment: ELISA, His-tagged Galectin-10 coated at 125 ng/mL, 254# diluted 1:200, anti-GST mouse antibody and HRP goat anti-mouse, repeat 3.
Experiment [7] has the same target. Kind of experiment: ELISA, His-tagged Galectin-10 coated at 2500 ng/mL, 254# diluted 1:200, anti-GST mouse antibody and HRP goat anti-mouse, average.
Experiment [8] has the same target. Kind of experiment: ELISA, His-tagged Galectin-10 coated at 500 ng/mL, 254# diluted 1:200, anti-GST mouse antibody and HRP goat anti-mouse, repeat 1.
For experiment [9] the target is unchanged. Kind of experiment: ELISA, His-tagged Galectin-10 coated at 500 ng/mL, 254# diluted 1:200, anti-GST mouse antibody and HRP goat anti-mouse, repeat 2.
The target is the same in experiment [10]. Kind of experiment: ELISA, His-tagged Galectin-10 coated at 500 ng/mL, 254# diluted 1:200, anti-GST mouse antibody and HRP goat anti-mouse, repeat 3.
Experiment [11] has the same target. Kind of experiment: ELISA, His-tagged Galectin-10 coated at 2500 ng/mL, 254# diluted 1:200, anti-GST mouse antibody and HRP goat anti-mouse, repeat 1.
Experiment [12] shares this target. Kind of experiment: ELISA, His-tagged Galectin-10 coated at 2500 ng/mL, 254# diluted 1:200, anti-GST mouse antibody and HRP goat anti-mouse, repeat 2.
Experiment [13] has the same target. Kind of experiment: ELISA, His-tagged Galectin-10 coated at 2500 ng/mL, 254# diluted 1:200, anti-GST mouse antibody and HRP goat anti-mouse, repeat 3.
Experiment [14] shares this target. Kind of experiment: ELISA, His-tagged Galectin-10 coated at 125 ng/mL, 225# diluted 1:200, anti-GST mouse antibody and HRP goat anti-mouse, average.
Experiment [15] has the same target. Kind of experiment: ELISA, His-tagged Galectin-10 coated at 500 ng/mL, 225# diluted 1:200, anti-GST mouse antibody and HRP goat anti-mouse, average.
Experiment [16] shares this target. Kind of experiment: ELISA, His-tagged Galectin-10 coated at 125 ng/mL, 225# diluted 1:200, anti-GST mouse antibody and HRP goat anti-mouse, repeat 1.
For experiment [17] the target is unchanged. Kind of experiment: ELISA, His-tagged Galectin-10 coated at 125 ng/mL, 225# diluted 1:200, anti-GST mouse antibody and HRP goat anti-mouse, repeat 2.
Experiment [18] shares this target. Kind of experiment: ELISA, His-tagged Galectin-10 coated at 125 ng/mL, 225# diluted 1:200, anti-GST mouse antibody and HRP goat anti-mouse, repeat 3.
The target is the same in experiment [19]. Kind of experiment: ELISA, His-tagged Galectin-10 coated at 2500 ng/mL, 225# diluted 1:200, anti-GST mouse antibody and HRP goat anti-mouse, average.
The target is the same in experiment [20]. Kind of experiment: ELISA, His-tagged Galectin-10 coated at 500 ng/mL, 225# diluted 1:200, anti-GST mouse antibody and HRP goat anti-mouse, repeat 1.
Experiment [21] has the same target. Kind of experiment: ELISA, His-tagged Galectin-10 coated at 500 ng/mL, 225# diluted 1:200, anti-GST mouse antibody and HRP goat anti-mouse, repeat 2.
Experiment [22] has the same target. Kind of experiment: ELISA, His-tagged Galectin-10 coated at 500 ng/mL, 225# diluted 1:200, anti-GST mouse antibody and HRP goat anti-mouse, repeat 3.
For experiment [23] the target is unchanged. Kind of experiment: ELISA, His-tagged Galectin-10 coated at 2500 ng/mL, 225# diluted 1:200, anti-GST mouse antibody and HRP goat anti-mouse, repeat 1.
Experiment [24] shares this target. Kind of experiment: ELISA, His-tagged Galectin-10 coated at 2500 ng/mL, 225# diluted 1:200, anti-GST mouse antibody and HRP goat anti-mouse, repeat 2.
The target is the same in experiment [25]. Kind of experiment: ELISA, His-tagged Galectin-10 coated at 2500 ng/mL, 225# diluted 1:200, anti-GST mouse antibody and HRP goat anti-mouse, repeat 3.

B1: 254# nano antibody (SEQ ID NO: 3) (VHH, not shown: a dimerising Fc or GST; small tags and cut ends)
VHH: EVQLQASGGGFVQPGGSLRLSCAASGFTFSSFAMGWFRQAPGKEREFVSAISSGGGNTYYADSVKGRFTISRDNSKNTVYLQMNSLRAEDTATYYCVTPGGRLWYYRYDYRCQGTQVTVSS
The molecule B1 showed a minimum test concentration in [1] of 125 ng/mL. For the same molecule, the OD at 450 nm was 0.373 OD450 in experiment [2]; 0.581 OD450 in [3]; 0.397 OD450 in experiment [4]; 0.353 OD450 in [5]; 0.37 OD450 in experiment [6]; 1.28 OD450 in experiment [7]. The OD at 450 nm in experiment [8] was determined as 0.615 OD450; in [9] it was 0.551 OD450; in [10] it was 0.577 OD450; in experiment [11], 1.32 OD450; in [12], 1.2 OD450; in experiment [13], 1.34 OD450.

B2: 225# nano antibody (SEQ ID NO: 4) (VHH, not shown: a dimerising Fc or GST; small tags and cut ends)
VHH: B1 VHH with F32Y, F47L
In the case of B2, the minimum test concentration in experiment [1] was determined as 125 ng/mL. The OD at 450 nm in [14] came to 0.16 OD450; in experiment [15] it was 0.265 OD450; in [16], 0.155 OD450; in experiment [17], 0.153 OD450; in [18], 0.173 OD450; in [19] it was 0.707 OD450. Also, the OD at 450 nm amounted to 0.257 OD450 in experiment [20]; 0.26 OD450 in experiment [21]; 0.279 OD450 in [22]; 0.74 OD450 in experiment [23]; 0.7 OD450 in experiment [24]; 0.681 OD450 in [25].
